The target in this data set is TGF-β1 (human, UniProt P01137 279-390). Briefly: ELISA. For orientation: In an ELISA, binding on a coated surface is turned into a signal by an enzyme label.

We go through one molecule from paper PMC11253692.

A value given as a limit tells only on which side of the number the result lay.

Chain of TGF-β1 (P01137 279-390): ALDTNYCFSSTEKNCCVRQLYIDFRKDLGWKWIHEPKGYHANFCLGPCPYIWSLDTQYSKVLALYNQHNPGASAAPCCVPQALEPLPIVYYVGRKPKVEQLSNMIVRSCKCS

B1: TGF-β1 aptamer (ssDNA)
DNA: CGCTCGGCTTCACGAGATTCGTGTCGTTGTGTCCTGTACCCGCCTTGACCAGTCACTCTAGAGCATCCGGACTG
modifications: 5'-SH (coupled to PEG-maleimide hydrogel)
For the molecule B1, the binding signal is > 60 % bound (highest binding ratio, reached at 4 h).
